Assays:
[1] = target: C739A NCX1, full length, tetracycline-inducible in FT-293 cells (canine); assay: cross-linking; FT-293 cells expressing tetracycline-inducible NCX1 treated with 0.1 mM BMH for 5 min at 37°C in 10 mM Tris-HCl pH 7.2, 150 mM NaCl; lysed in 1% Triton X-100; SDS-PAGE
[2] = target: the molecule itself; assay: as above

**Q.** For “C739A NCX1, full length, tetracycline-inducible in FT-293 cells (natural protein)”, which stoichiometry N [1] is on record?
**A.** 2

B1: wild-type (WT) NCX1, full length, tetracycline-inducible in FT-293 cells (natural protein, canine, UniProt P23685 33-970, looked up)
chain: ETEMEGEGNETGECTGSYYCKKGVILPIWEPQDPSFGDKIARATVYFVAMVYMFLGVSIIADRFMSSIEVITSQEKEITIKKPNGETTKTTVRIWNETVSNLTLMALGSSAPEILLSVIEVCGHNFTAGDLGPSTIVGSAAFNMFIIIALCVYVVPDGETRKIKHLRVFFVTAAWSIFAYTWLYIILSVISPGVVEVWEGLLTFFFFPICVVFAWVADRRLLFYKYVYKRYRAGKQRGMIIEHEGDRPSSKTEIEMDGKVVNSHVDNFLDGALVLEVDERDQDDEEARREMARILKELKQKHPEKEIEQLIELANYQVLSQQQKSRAFYRIQATRLMTGAGNILKRHAADQARKAVSMHEVNTEVAENDPVSKIFFEQGTYQCLENCGTVALTIIRRGGDLTNTVFVDFRTEDGTANAGSDYEFTEGTVVFKPGETQKEIRVGIIDDDIFEEDENFLVHLSNVKVSSEASEDGILEANHVSALACLGSPSTATVTIFDDDHAGIFTFEEPVTHVSESIGIMEVKVLRTSGARGNVIVPYKTIEGTARGGGEDFEDTCGELEFQNDEIVKTISVKVIDDEEYEKNKTFFLEIGEPRLVEMSEKKALLLNELGGFTITGKYLYGQPVFRKVHAREHPIPSTVITIAEEYDDKQPLTSKEEEERRIAEMGRPILGEHTKLEVIIEESYEFKSTVDKLIKKTNLALVVGTNSWREQFIEAITVSAGEDDDDDECGEEKLPSCFDYVMHFLTVFWKVLFAFVPPTEYWNGWACFIVSILMIGILTAFIGDLASHFGCTIGLKDSVTAVVFVALGTSVPDTFASKVAATQDQYADASIGNVTGSNAVNVFLGIGVAWSIAAIYHAANGEQFKVSPGTLAFSVTLFTIFAFINVGVLLYRRRPEIGGELGGPRTAKLLTSCLFVLLWLLYIFFSSLEAYCHIKGF
modifications: palmitoylated at cysteine 739
notes: Na-Ca exchanger 1, canine, NCX1.1 cDNA; Forms a dimer (cross-linking); The cell line is from Reilly et al., 2015; source: in cells or in lysate
**Q.** With B1 as the molecule, how does the “stoichiometry N” value [2] read?
**A.** 2
